{
  "source": "the RNAGym collection of RNA variant scans (doi:10.1073/pnas.2313332121)",
  "parents": {"B1": {"name": "TPR t1 (parent)", "chain": "GACCAAUCUGCCCUCAGAGCUCGAGAACAUCUUCGGAUGCAGAGGAGGCAGGCUUCGGUGGCGCGAUAGCGCCAACGUCCUCAACCUCCAAUGCAUCCCACCACAUGAUGAUGCCUGAAGAGCCUUGGUUUUUUG"}},
  "data": [
    {"variants_of": "B1", "assay": "polymerase ribozyme fitness, log enrichment relative to wild type (log ratio); higher = more active; in vitro selection for triplet polymerase activity", "summary_of_the_method": "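A single round of triplicate in vitro selection, including frozen incubation at −7 °C, was applied to PCR-built, transcribed mutant libraries of each subunit of a heterodimeric triplet polymerase ribozyme. Illumina sequencing of input and output libraries retained genotypes with ≥10 input reads and ≥1 read per output. Fitness is the base-2 logarithm of genotype enrichment divided by wild-type enrichment, from inverse-variance-weighted replicate averages.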", "values": [
      {"variant": "GACCAAUCUGCCCUCAGAGCUCGAGAACAUCUUCGGAUGCAGAAGAGGCAGGCUUCGGUGGCGCGAUAGCGCCAACGUCCUCAACCUCCAAUGCAUCCUACCACAUGAUGAUGCCUGAAGAGCCUUGGUUUUUUG", "note": "[G44A C99U]", "polymerase ribozyme fitness (log ratio)": -4.58},
      {"variant": "GACCAAUCUGCCCUCAGAGCUCGAGAACAUCUUCGGAUGCAGAAGAGGCAGGCUUCGGUGGCGCGAUAGCGGCAACGUCCUCAACCUCCAAUGCAUUCCACCACAUGAUGAUUCCUAAAGAGCCUUGGUUUUUUG", "note": "[G44A C72G C97U G113U G117A]", "polymerase ribozyme fitness (log ratio)": -6.18},
      {"variant": "GACCAAUCUGCCCUCAGAGCUCGAGAACAUCUUCGGAUGCAGAAGAGGCAGGCUUCGGUGGCGCGAUAGCGGCAACGUCCUCAACCUCCAAUGCAUCCCACCACAUGAUGAUGACUGAAGUGCCUUCGUUUUUUG", "note": "[G44A C72G C114A A121U G127C]", "polymerase ribozyme fitness (log ratio)": -2.5},
      {"variant": "GACCAAUCUGCCCUCAGAGCUCGAGAACAUCUUCGGAUGCAGAAGAGGCAGGCUUCGGUGGCGCGAUAGCGGCAACGUCCUCAACCUCCAAUGCAGCCCACCACAUGAUGAUGCCUGAAGAGCCUUGGUUUUUUG", "note": "[G44A C72G U96G]", "polymerase ribozyme fitness (log ratio)": -2.52},
      {"variant": "GACCAAUCUGCCCUCAGAGCUCGAGAACAUCUUCGGAUGCAGAAGAGGCAGGCUUCGGUGGCGCGAUAGCGCAAACGUCCUCAACCGCCAAUGCAUCCCACCACAUGAUGAUGCCUGAAGAGCCUUGGUUUUUUG", "note": "[G44A C73A U87G]", "polymerase ribozyme fitness (log ratio)": -0.428},
      {"variant": "GACCAAUCUGCCCUCAGAGCUCGAGAACAUCUUCGGAUGCAGAAGAGGCAGGCUUCGGUGGCGCGAUAGUGCCAACGUCCUCGACCUCCAAUGCACCCCACCACAUGAUUAUGCCUGAAGAGCCUUGGUUUUUUG", "note": "[G44A C70U A83G U96C G110U]", "polymerase ribozyme fitness (log ratio)": -6.41},
      {"variant": "GACCAAUCUGCCCUCAGAGCUCGAGAACAUCUUCGGAUGCAGAAGAGGCAGGCUUCGGUGGCGCGAUAGGGCCAACGUCCUCAACCUCCAAUGCAUCCCAGCACAUGAUGAUGUCUGAAGAGCCUUGCUUUUUUG", "note": "[G44A C70G C101G C114U G128C]", "polymerase ribozyme fitness (log ratio)": -6.56},
      {"variant": "GACCAAUCUGCCCUCAGAGCUCGAGAACAUCUUCGGAUGCAGAAGAGGCAGGCUUCGGUGGCGCGAUAGCGUCAACGUCCUCAUCCUCCAAUGCAUCCCACCACAUGAUGAUGCCUGAAGAGCCUUGGUUUUUUG", "note": "[G44A C72U A84U]", "polymerase ribozyme fitness (log ratio)": -1.47},
      {"variant": "GACCAAUCUGCCCUCAGAGCUCGAGAACAUCUUCGGAUGCAGAAGAGGCAGGCUUCGGUGGCGCGAUAGCGCCAACGUCCUCAACCUCCAAUGCAUCCAACCACAUGAUGAUGACUGAAGAGCCUUGGUUUUUUG", "note": "[G44A C99A C114A]", "polymerase ribozyme fitness (log ratio)": -5.96},
      {"variant": "GACCAAUCUGCCCUCAGAGCUCGAGAACAUCUUCGGAUGCAGAAGAGGCAGGCUUCGGUGGCGCGAUAGCGCCAACGUCCUCAACGUCCAAUGCAACCCACCACAUGAUGAUGCCUGAAGAGCCUUGGUUUUUUG", "note": "[G44A C86G U96A]", "polymerase ribozyme fitness (log ratio)": -3.83},
      {"variant": "GACCAAUCUGCCCUCAGAGCUCGAGAACAUCUUCGGAUGCAGAAGAGGCAGGCUUCGGUGGCGCGAUAGCGCCAACGUCAUCAACCUCCAAUGCAUCCCACCACAUGAUGAUGCCUGAAGAGCAUUGGUUUUUUG", "note": "[G44A C80A C124A]", "polymerase ribozyme fitness (log ratio)": -3.54},
      {"variant": "GACCAAUCUGCCCUCAGAGCUCGAGAACAUCUUCGGAUGCAGAAGAGGCAGGCUUCGGUGGCGCGAUAGCGACAACGUCCUCAACCUCCAAUGCAUCCCACCACAUGAUGAUGCCUGAAGAGCCUUGGUUUUUUG", "note": "[G44A C72A]", "polymerase ribozyme fitness (log ratio)": -0.836},
      {"variant": "GACCAAUCUGCCCUCAGAGCUCGAGAACAUCUUCGGAUGCAGAAGAGGCAGGCUUCGGUGGCGCGAUAGCGCCAACGUCCUUAACCUCCAAUGCAUCCCAGCACAUGAUGAUGCCUGAAGAGCCUUGGUUUUUUG", "note": "[G44A C82U C101G]", "polymerase ribozyme fitness (log ratio)": -2.82},
      {"variant": "GACCAAUCUGCCCUCAGAGCUCGAGAACAUCUUCGGAUGCAGAAGAGGCAGGCUUCGGUGGCGCGAUAGGGCCAACGUCCUCAACCUCCAAUGCAUCCCACCACAUGAUGAUGCCUGAAGAGCCUUGGUUUUUUG", "note": "[G44A C70G]", "polymerase ribozyme fitness (log ratio)": -4.21},
      {"variant": "GACCAAUCUGCCCUCAGAGCUCGAGAACAUCUUCGGAUGCAGAAGAGGCAGGCUUCGGUGGCGCGAUAGCGGCAACGUCCUCAACCUCCAAUGCAUCCCACCACAUGAUGAUGCCUGAGGAGCCCUGGUUUUUUG", "note": "[G44A C72G A119G U125C]", "polymerase ribozyme fitness (log ratio)": -2.76},
      {"variant": "GACCAAUCUGCCCUCAGAGCUCGAGAACAUCUUCGGAUGCAGAAGAGGCAGGCUUCGGUGGCGCGAUAGCGCCAACGUCCUCAACCUCUAAUGCAUCCCACCACAUGAUGAUGGCUGAAGAGCCUUUGUUUAUUG", "note": "[G44A C89U C114G G127U U132A]", "polymerase ribozyme fitness (log ratio)": -3.64},
      {"variant": "GACCAAUCUGCCCUCAGAGCUCGAGAACAUCUUCGGAUGCAGAAGAGGCAGGCUUCGGUGGCGCGAUAGCGACAACGUCCUCAACCUCCAAUGCAUCCCACCACAUGAUAAUGCCUGAAGAACAUUGGUUUUUUG", "note": "[G44A C72A G110A G122A C124A]", "polymerase ribozyme fitness (log ratio)": -3.56},
      {"variant": "GACCAAUCUGCCCUCAGAGCUCGAGAACAUCUUCGGAUGCAGAAGAGGCAGGCUUCGGUGGCGCGAUAGCGCGAACGUCCUCAAACUCCAAUGCAUCCCACCACAUGAUGAUGCCUGAAGAGCCUUGGUAUUUUG", "note": "[G44A C73G C85A U130A]", "polymerase ribozyme fitness (log ratio)": -3.2},
      {"variant": "GACCAAUCUGCCCUCAGAGCUCGAGAACAUCUUCGGAUGCAGAAGAGGCAGGCUUCGGUGGCGCGAUAGCGACAACGUCCUCAACCUCCAAUGCAUCUCACCACAUGAUAAUGCCUGAAGAGCCUUGGUUUUUUG", "note": "[G44A C72A C98U G110A]", "polymerase ribozyme fitness (log ratio)": -4.64},
      {"variant": "GACCAAUCUGCCCUCAGAGCUCGAGAACAUCUUCGGAUGCAGAAGAGGCAGGCUUCGGUGGCGCGAUAGCGCCAACGUACUCAACCUCCAAUGCAUCCCACCACAUGAUGAUGCCUGAAGAGCCAUGGUUUUUUG", "note": "[G44A C79A U125A]", "polymerase ribozyme fitness (log ratio)": -3.2},
      {"variant": "GACCAAUCUGCCCUCAGAGCUCGAGAACAUCUUCGGAUGCAGAAGAGGCAGGCUUCGGUGGCGCGAUAGCGGCAACGUCCUCAACCUCCAAUGCAUCCCACCACAUGAUGAUGCCUGAAGAGACUUGGUUUUUUG", "note": "[G44A C72G C123A]", "polymerase ribozyme fitness (log ratio)": -1.13}
    ]}
  ]
}
